For this assay, the target named is T1, full-length human LOX-1 fused to yellow fluorescent protein, expressed on CHO-K1 cells (human, UniProt P78380 1-273).
T1 construct: LOX-1 (low-density oxidized lipoprotein lectin-like receptor 1), human, full length, on transfected CHO-K1 cells; pEYFP-N1 usually places the YFP at the C-terminus of the insert (surmise); also called low-density oxidized lipoprotein lectin-like receptor 1; LOX-1-expressing cells; source: CHO-K1 cells, transiently transfected (pEYFP-N1 vector), on live cells
As to the kind of experiment: flow cytometry on cells; CHO-K1 cells transiently expressing human LOX-1-YFP mixed with NadA3 protein (200 µg/ml) for 30 min at 37°C; detected with mouse polyclonal anti-NadA3 and APC-conjugated secondary antibody. As to conditions: one partner purified.

B1: NadA3 24–170 K68A K69A D70A mutant (domain or fragment)
chain: ATNDDDVKKAATVAIAAAYNNGQEINGFKAGETIYDIDEDGTITAAAATAADVEADDFKGLGLKKVVTNLTKTVNENKQNVDAKVKAAESEIEKLTTKLADTDAALADTDAALDATTNALNKLGENITTFAEETKTNIVKIDEKLEA
notes: NadA3, N. meningitidis serogroup B strain 2996, UniProt Q8KH85, residues 24-170 with K68A, K69A and D70A
In the case of B1, the “percent doubly positive cells (LOX-1 and NadA)” value is 49.8%.
